Substrate in this series: CC(=O)Oc1cccc2ccccc12
Put plainly: purified protein. The class given is biochemical, Rhopalosiphum padi. As to conditions: Tris-HCl buffer, 3 mM Fast Blue RR salt, 5 min.

B1: RpCarE (Rhopalosiphum padi) (protein)
chain: MEVVIEQGVLKGVQNKTLLSNKPYVSFLGIPYAKPPVNDLRFKPPVKHPGWSGILKAISERDRCMQYAFVANDIIGSEDCLYLNVLVPQNGLNEKLAVMIFIHGGAFNYGCGSVNEQSPDYLLDENVIVITLNYRLNALGFLNLDIDECPGNMGLKDQLFAIKWIKANIAAFGGDVNNITIFGESAGSVSVHYHTMSPQSTGLFQKAIMQSGCAFNPWALNENHRVAAFKLAKNLGCLSSDPNEIVKYLRNVSAIDLVKETKFKDDNGFLDYKFVPSIESDMVSDRFLPAHPKTLATIASPVPVIVGLNSMEGIIALSEYRLSKFSDLQITDEISKLFNNQYSTEVISKIKDFYFNKCNNNCEIAKLENICHLHSDVFFVKDFYRGFDHFLKQNVTPVYIYEFKFDGELNAIKNWIFATRPVLRHALKGACHADEIYYLFRNNLSGVVPKPNSPELEMCKAMGKMWSNFAKTGDPNSLDLSFKWNYASASDTKYLSIDGDRTQMTQGMINNNRSRFWKDLIKESIV
notes: pET-28a His6-tag fusion (tag kept), E. coli BL21(DE3); catalytic triad S185-E312-H432
Broadly, the Km is the concentration of substrate that gives half-maximal velocity. The term kcat denotes the number of substrate molecules converted per active site and unit of time at saturation. One may read the kcat/Km as the second-order rate constant that governs catalysis at low substrate concentration. With B1, the Km was determined as 42.98 ± 6.73 µM, the catalytic constant (kcat) was determined as 5.50 ± 0.28 s⁻¹ and the kcat/Km was found to be 130000 M⁻¹ s⁻¹.

Source of the values: publication PMC6068260, “Functional Analysis of a Carboxylesterase Gene Associated With Isoprocarb and Cyhalothrin Resistance in Rhopalosiphum padi (L.)” (Frontiers in Physiology, 2018).
